This experiment addresses HBV S/preS1^16-42 chimeric antigen (Hepatitis B virus, genotype D) (UniProt P03138). Briefly: SDS-PAGE under non-reducing conditions with western blot; lysates of transfected HEK293T cells, -DTT, detected with anti-preS1 antibodies; dimers of ~50 kDa held by intermolecular disulfide bonds. For orientation: In western blotting, separated proteins are transferred to a membrane and probed.

Among the data in article PMC9354405 are stoichiometry N values, retold here.

As a reminder, the stoichiometry N is the number of molecules, sites or subunits per partner or assembly. “HBV S/preS1^16-42 chimeric antigen (from UniProt P03138 16-42)” had a stoichiometry N of 2.
